These results are taken from patent US20090042993.

The target of data set [1] is BACE1Ala (BACE1 with the seven acetylated lysine residues mutated to alanine), P56817.
The target in data set [2] is BACE1-myc (myc-tagged at the C-terminus version of BACE1), P56817.
The target of data set [3] is BACE1 (β-site APP cleaving enzyme 1), native form BACE1WT, P56817.
BACE1 (β-site APP cleaving enzyme 1), native form BACE1WT, P56817, sequence (P56817 46-501): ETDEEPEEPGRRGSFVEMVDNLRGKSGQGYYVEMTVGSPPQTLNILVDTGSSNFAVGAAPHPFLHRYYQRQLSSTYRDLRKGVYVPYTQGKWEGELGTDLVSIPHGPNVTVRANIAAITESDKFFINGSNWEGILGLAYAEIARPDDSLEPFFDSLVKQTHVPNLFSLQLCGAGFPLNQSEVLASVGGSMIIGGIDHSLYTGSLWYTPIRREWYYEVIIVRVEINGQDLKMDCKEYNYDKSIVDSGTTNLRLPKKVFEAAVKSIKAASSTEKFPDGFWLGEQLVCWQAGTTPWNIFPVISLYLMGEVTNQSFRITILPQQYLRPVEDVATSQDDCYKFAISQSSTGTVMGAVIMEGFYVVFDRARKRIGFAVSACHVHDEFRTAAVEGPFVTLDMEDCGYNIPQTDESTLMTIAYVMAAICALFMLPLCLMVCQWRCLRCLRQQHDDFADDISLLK

BACE1Ala (BACE1 with the seven acetylated lysine residues mutated to alanine), P56817, sequence (P56817 other isoform, or with tags, fused parts or gaps, change not shown): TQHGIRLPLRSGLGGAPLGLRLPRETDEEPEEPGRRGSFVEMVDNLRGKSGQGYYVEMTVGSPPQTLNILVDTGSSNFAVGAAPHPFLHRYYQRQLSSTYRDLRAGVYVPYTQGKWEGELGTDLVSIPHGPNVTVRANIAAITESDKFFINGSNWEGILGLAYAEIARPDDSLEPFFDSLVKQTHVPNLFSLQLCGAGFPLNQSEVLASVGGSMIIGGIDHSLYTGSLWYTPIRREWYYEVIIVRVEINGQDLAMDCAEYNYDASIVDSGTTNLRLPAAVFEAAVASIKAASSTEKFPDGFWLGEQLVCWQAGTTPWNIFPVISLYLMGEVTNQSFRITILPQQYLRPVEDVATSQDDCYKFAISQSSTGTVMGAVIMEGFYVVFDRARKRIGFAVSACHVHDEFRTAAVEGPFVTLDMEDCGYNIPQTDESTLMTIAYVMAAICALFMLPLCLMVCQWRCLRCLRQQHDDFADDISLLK
BACE1-myc (myc-tagged at the C-terminus version of BACE1), P56817, sequence (P56817 46-501): as the sequence (P56817 46-501) above

B1: purified recombinant HAT fragment of p300 (histone acetyl transferase domain of recombinant CBP/p300) (protein)
chain: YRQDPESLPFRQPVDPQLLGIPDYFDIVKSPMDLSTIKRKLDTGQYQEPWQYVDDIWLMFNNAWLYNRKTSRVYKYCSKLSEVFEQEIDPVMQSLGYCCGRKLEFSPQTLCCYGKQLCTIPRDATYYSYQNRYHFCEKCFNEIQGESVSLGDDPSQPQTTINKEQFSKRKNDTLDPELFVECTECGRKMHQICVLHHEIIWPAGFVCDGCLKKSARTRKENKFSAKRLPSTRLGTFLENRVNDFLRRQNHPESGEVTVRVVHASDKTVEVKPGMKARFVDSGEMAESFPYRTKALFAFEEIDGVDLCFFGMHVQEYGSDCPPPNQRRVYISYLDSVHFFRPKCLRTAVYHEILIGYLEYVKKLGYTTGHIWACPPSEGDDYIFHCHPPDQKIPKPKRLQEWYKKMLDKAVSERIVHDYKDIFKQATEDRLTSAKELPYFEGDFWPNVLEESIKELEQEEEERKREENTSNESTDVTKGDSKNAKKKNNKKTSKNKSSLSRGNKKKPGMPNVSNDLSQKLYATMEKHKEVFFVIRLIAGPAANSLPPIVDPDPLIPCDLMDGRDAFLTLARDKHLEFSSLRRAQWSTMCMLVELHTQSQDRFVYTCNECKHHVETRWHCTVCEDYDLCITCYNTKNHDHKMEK
For the protein B1, the “in vitro acetylation ([3H]Acetyl-CoA incorporation into BACE1, scintillation counting)” value is recorded as “but not BACE1Ala” in data set [1]; “BACE1 can be acetylated in vitro, provided that is incubated in the presence of an enzymatically active acetyltransferase” in data set [2]; “resulted in acetylation of BACE1WT” in data set [3].
